Patent US20250249113A1 (DEBIOPHARM RESEARCH AND MANUFACTURING S A, published 2025)
Primed or numbered codes have the meaning given here. Side-chain parts run from the residue outwards. PEG4′ = not defined here; Mal = not defined here

Target: recombinant human Cathepsin B (human, UniProt P07858 80-333)
Experiment: cell-based or functional assay

Cat B-induced drug release, fold faster than the reference Cys-MC-Val-Cit-PABC-MMAF: 20 times
B1: Compound 5: DM1-Mal-Phe-Lys-Lys(PEG4-Mal-Cys-Ac)-Phe-OH (peptide)
peptide: {DM1-Mal}-FKK([PEG4′-Mal-Cys-Ac])F-OH
modifications: reading uncertain; also: printed as DM1-Mal-Phe-Lys-Lys(PEG4-Mal-Cys-Ac)-Phe-OH
